PMC9385667, “Structural basis for proton coupled cystine transport by cystinosin” (Nature Communications, 2022)
Changes are numbered by the printed parent chain. In names and notes the source's numbering stands.

Assays:
[1] = target: T1, Arabidopsis thaliana cystinosin (plant cystinosin) (Arabidopsis thaliana, UniProt P57758); assay: X-ray crystal structure, […] Å; conditions: complex with sybody Syb39; lipidic cubic phase; central binding site, inward-open state
T1 construct: gene At5g40670; codon-optimised gene expressed in Saccharomyces cerevisiae BJ5460 as cleavable C-terminal GFP-His fusion; tag cut with TEV protease; DDM-purified; reconstituted in POPE:POPG liposomes for transport
T1 sequence (P57758 1-270): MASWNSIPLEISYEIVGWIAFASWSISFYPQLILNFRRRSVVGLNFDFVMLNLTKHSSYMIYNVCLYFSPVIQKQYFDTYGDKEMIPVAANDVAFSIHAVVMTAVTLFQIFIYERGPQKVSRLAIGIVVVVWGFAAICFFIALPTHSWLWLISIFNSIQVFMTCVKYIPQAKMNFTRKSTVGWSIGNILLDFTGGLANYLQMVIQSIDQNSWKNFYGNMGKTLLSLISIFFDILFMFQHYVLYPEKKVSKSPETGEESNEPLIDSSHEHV

[2] = target: T2, Arabidopsis thaliana cystinosin (plant cystinosin) (Arabidopsis thaliana, UniProt P57758, P169G); assay: nanoDSF tryptophan fluorescence quench, DDM-purified protein; assay type: binding; conditions: 3.2 mM L-cystine, 10 μM protein, pH 7.2, 25 °C
T2 construct: gene At5g40670; codon-optimised gene expressed in Saccharomyces cerevisiae BJ5460 as cleavable C-terminal GFP-His fusion; tag cut with TEV protease; DDM-purified; reconstituted in POPE:POPG liposomes for transport
T2 sequence (P57758 1-270 P169G): T1 sequence (P57758 1-270) with P169G

[3] = target: T3, Arabidopsis thaliana cystinosin (plant cystinosin) (Arabidopsis thaliana, UniProt P57758, S228A); assay: as above; assay type: binding; conditions: 3.2 mM L-cystine, 10 μM protein, pH 7.2, 25 °C
T3 construct: gene At5g40670; codon-optimised gene expressed in Saccharomyces cerevisiae BJ5460 as cleavable C-terminal GFP-His fusion; tag cut with TEV protease; DDM-purified; reconstituted in POPE:POPG liposomes for transport
T3 sequence (P57758 1-270 S228A): T1 sequence (P57758 1-270) with S228A

[4] = target: T4, Arabidopsis thaliana cystinosin (plant cystinosin) (Arabidopsis thaliana, UniProt P57758, W24F); assay: as above; assay type: binding; conditions: 3.2 mM L-cystine, 10 μM protein, pH 7.2, 25 °C
T4 construct: gene At5g40670; codon-optimised gene expressed in Saccharomyces cerevisiae BJ5460 as cleavable C-terminal GFP-His fusion; tag cut with TEV protease; DDM-purified; reconstituted in POPE:POPG liposomes for transport
T4 sequence (P57758 1-270 W24F): T1 sequence (P57758 1-270) with W24F

[5] = tested on: T5, N[C@@H](CSSC[C@H](N)C(=O)O)C(=O)O; assay: two-electrode voltage clamp in Xenopus laevis oocytes; assay type: cell-based, Homo sapiens; conditions: pH 5, -40 mV, ND-96, proton-coupled transport
T5 construct: no GFP; plasma membrane of Xenopus laevis oocytes

[6] = target: T1, Arabidopsis thaliana cystinosin (plant cystinosin); assay: pyranine proton-flux transport assay in proteoliposomes; assay type: biochemical; conditions: 500 μM substrate, pH 7.2, 25 °C, valinomycin / K+ gradient
[7] = substrate: N[C@@H](CSSC[C@H](N)C(=O)O)C(=O)O; assay: as above; assay type: biochemical, Arabidopsis thaliana; conditions: pH 7.2 both sides, 25 °C, valinomycin / K+ gradient
[8] = substrate: N[C@@H](CSSC[C@H](N)C(=O)O)C(=O)O; assay: two-electrode voltage clamp in Xenopus laevis oocytes; assay type: cell-based, Homo sapiens; conditions: pH 5, -40 mV, ND-96, proton-coupled transport
[9] = target: T6, Arabidopsis thaliana cystinosin (Arabidopsis thaliana, UniProt P57758 1-270); assay: BLI
T6 chain: T1 sequence (P57758 1-270)

[10] = target: T7, Arabidopsis thaliana cystinosin (Arabidopsis thaliana, UniProt P57758); assay: crystal structure; apo cystinosin with Nb1 and Nb4, lipidic cubic phase, 2.33 Å, PDB 7ZKZ; conditions: both partners purified
T7 construct: cystinosin from Arabidopsis thaliana, Uniprot P57758; codon-optimised synthetic gene in pDDGFP-Leu2d; also called plant cystinosin; the transporter; source: Saccharomyces cerevisiae BJ5460, purified in DDM (Ni-NTA, TEV cleavage, reverse IMAC, Superdex 200)

[11] = target: T7, Arabidopsis thaliana cystinosin; assay: crystal structure; apo cystinosin with Syb39 and Nb4, lipidic cubic phase (monoolein), 20 °C, 2.65 Å, PDB 7ZK1; conditions: both partners purified

With N[C@@H](CSSC[C@H](N)C(=O)O)C(=O)O [L-cystine] the “X-ray crystal structure, 3.37 Å” value [1] was “we determined the structure of the ligand bound state in complex with Syb39”, the “nanoDSF tryptophan fluorescence quench, DDM-purified protein” value [2] was “it still retains WT levels of L-cystine binding” and the “% loss of binding relative to WT” value [3] was ~ 50%. The “% loss of binding relative to WT” value [4] was ~ 50%.

In the case of “human cystinosin (WT) (Homo sapiens; DEL362-367)”, the Km [5] is reported as 117 ± 2.4 µM.

For N[C@@H](CSS(=O)(=O)C[C@H](N)C(=O)O)C(=O)O [L-cystine-S,S-dioxide], the “transport, % of WT levels at 500 μM” value [6] was ~ 80%.

B1: Arabidopsis thaliana cystinosin (plant cystinosin) (Arabidopsis thaliana) (protein)
chain: T1 sequence (P57758 1-270)
notes: codon-optimised gene expressed in Saccharomyces cerevisiae BJ5460 as cleavable C-terminal GFP-His fusion; tag cut with TEV protease; DDM-purified; reconstituted in POPE:POPG liposomes for transport
With B1 the Km ([7]; proton-coupled symport) was 19 ± 2.9 µM.

B2: human cystinosin Δ2-115 variant (ΔN) (Homo sapiens; DEL2-115) (protein)
chain: MLVIRSSAISIINQVIGWIYFVAWSISFYPQVIMNWRRKSVIGLSFDFVALNLTGFVAYSVFNIGLLWVPYIKEQFLLKYPNGVNPVNSNDVFFSLHAVVLTLIIIVQCCLYERGGQRVSWPAIGFLVLAWLFAFVTMIVAAVGVTTWLQFLFCFSYIKLAVTLVKYFPQAYMNFYYKSTEGWSIGNVLLDFTGGSFSLLQMFLQSYNNDQWTLIFGDPTKFGLGVFSIVFDVVFFIQHFCLYRKRP
notes: no GFP; Xenopus laevis oocytes
For B2, the Km [8] was 117 ± 28.9 µM.

B3: Arabidopsis thaliana cystinosin (plant cystinosin) (Arabidopsis thaliana; Y167F) (protein)
chain: T1 sequence (P57758 1-270) with Y167F
notes: as for B1
With B3 the Km [7] was 73.3 ± 12.8 µM.

B4: Nb4 (VHH)
VHH: QVQLVESGGGLVQAGGSLRLSCAASGRTITPISTYVMGWFRQDPGKEREFVASISWNGANTYYADSVKGRFTISRDNAKNTVYLQMNSLKPEDTAVYYCAADPESHVRLRLGVGAYWGRGTQVTVSS
notes: llama nanobody; also called llama derived nanobody (Nb4)
With B4 the Kd [9] was 90 nM and the binding result [10] was “binds”.

B5: sybody 39 (VHH)
VHH: QVQLVESGGGLVQAGGSLRLSCAASGFPVYRNRMHWYRQAPGKEREWVAAIESAGQETHYADSVKGRFTISRDNAKNTVYLQMNSLKPEDTAVYYCNVKDEGWYWQTYDYWGQGTQVTVSA
notes: synthetic nanobody selected from the loop library; also called Syb39
In the case of B5, the Kd [9] is reported as 760 nM and the binding result [11] is reported as “binds”.

B6: Nb1 (VHH)
VHH: QVQLVESGGGSAQPGGSLRLSCAVSGSVSELNTMGWFRQAPGKQRELVARITATSDATNYADSVKGRFTISRDNGWNTVYLQSNSLKPEDSAVYYCNVEGAPSWFSGIRSYWGQGTQVTVSS
notes: llama nanobody
For B6, the Kd [9] was 189 nM and the binding result [10] was “binds”.
